In publication PMC12329717 (Biochemistry, 2025):

Tests used:
[1] = molecular target: Caulobacter crescentus histidine kinase HnoK, as purified (Caulobacter crescentus); assay: SEC; HiPrep Sephacryl S-200 HR column in 20 mM Tris, pH 8, 150 mM NaCl; elution volumes at the last step of purification
HnoK = molecular target: T1, HnoK (Caulobacter vibrioides, UniProt A0A0H3CAQ8, D543N); assay: […] autophosphorylation, SDS-PAGE autoradiography; type: biochemical; details: 1 mM ATP with [gamma-32P]ATP, Mn2+ or Mg2+ 5 mM (Mn2+ preferred), room temperature; MBP fusion; labelled compound
T1 construct: gene CCNA_03088; N-terminal 6-His version also tested; E. coli BL21(DE3); homodimer
T1 sequence (A0A0H3CAQ8 entry or part of it D543N): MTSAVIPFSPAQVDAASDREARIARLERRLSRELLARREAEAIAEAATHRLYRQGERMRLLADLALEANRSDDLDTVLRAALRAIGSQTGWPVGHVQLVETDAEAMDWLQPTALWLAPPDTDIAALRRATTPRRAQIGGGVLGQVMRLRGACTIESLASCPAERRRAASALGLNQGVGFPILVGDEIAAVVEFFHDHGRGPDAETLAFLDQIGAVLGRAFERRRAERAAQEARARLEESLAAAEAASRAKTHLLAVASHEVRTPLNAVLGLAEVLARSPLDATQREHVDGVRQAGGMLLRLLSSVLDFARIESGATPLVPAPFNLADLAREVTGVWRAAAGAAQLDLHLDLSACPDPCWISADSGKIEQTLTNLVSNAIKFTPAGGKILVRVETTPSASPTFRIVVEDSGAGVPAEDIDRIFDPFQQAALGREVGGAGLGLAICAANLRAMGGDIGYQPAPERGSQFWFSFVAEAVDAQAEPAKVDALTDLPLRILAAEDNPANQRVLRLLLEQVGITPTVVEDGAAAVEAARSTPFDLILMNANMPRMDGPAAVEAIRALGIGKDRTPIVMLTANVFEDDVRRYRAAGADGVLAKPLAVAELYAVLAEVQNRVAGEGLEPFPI

Row | Compound | stoichiometry N [1] | 32P autophosphorylation, SDS-PAGE autoradiography (HnoK)
1 | Caulobacter crescentus histidine kinase HnoK, as purified (from UniProt A0A0H3CAQ8 1-624) (enzyme) | 2 | –
2 | Nc1ncnc2c1ncn2[C@@H]1O[C@H](COP(=O)(O)OP(=O)(O)OP(=O)(O)O)[C@@H](O)[C@H]1O [ATP] | – | D543N HnoK-MBP was used for the autophosphorylation assays shown
